Assay results published in US20240084003A1 (SIMCERE ZAIMING PHARMACEUTICAL, published 2024).
Residue numbers refer to the chain shown, from its start. One block for each binder: values may come before it.

Experiments:
[1] = target: T1, human CD22-ECD-His protein (human, UniProt P20273 20-687); experiment: ELISA, Ab 10.00 nM
T1 construct: Made in house in HEK293E; also called hCD22-ECD-His; recombinant human CD22-ECD His protein; not shown: His tag
T1 sequence: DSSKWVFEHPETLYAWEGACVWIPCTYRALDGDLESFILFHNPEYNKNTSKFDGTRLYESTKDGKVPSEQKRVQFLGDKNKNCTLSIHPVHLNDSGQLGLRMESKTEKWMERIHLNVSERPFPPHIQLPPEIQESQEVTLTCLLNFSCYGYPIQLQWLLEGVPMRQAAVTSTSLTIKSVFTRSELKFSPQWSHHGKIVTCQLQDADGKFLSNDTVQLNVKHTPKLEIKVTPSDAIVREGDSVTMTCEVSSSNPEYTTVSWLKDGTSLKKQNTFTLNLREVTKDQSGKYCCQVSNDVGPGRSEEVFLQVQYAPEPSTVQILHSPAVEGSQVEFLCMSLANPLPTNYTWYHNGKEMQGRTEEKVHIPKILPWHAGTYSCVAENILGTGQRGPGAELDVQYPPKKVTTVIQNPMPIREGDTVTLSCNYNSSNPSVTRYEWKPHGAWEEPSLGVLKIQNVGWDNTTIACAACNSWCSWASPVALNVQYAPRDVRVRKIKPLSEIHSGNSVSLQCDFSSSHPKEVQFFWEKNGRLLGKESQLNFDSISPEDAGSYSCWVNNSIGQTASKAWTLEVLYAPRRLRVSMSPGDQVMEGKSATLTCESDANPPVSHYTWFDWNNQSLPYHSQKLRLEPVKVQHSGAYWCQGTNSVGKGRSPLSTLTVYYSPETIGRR
Outline: (§1)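 Coat: CD22-ECD-His 2 μg/mL PBS, 4 °C o/n. Block PBS/2% BSA 2 h RT. Ab 2 h 37 °C; HRP 2° 2 h 37 °C; TMB 30 min RT, 1.0 N HCl stop.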

[2] = target: T1, human CD22-ECD-His protein; experiment: ELISA, Ab 100.00 nM
Outline: as §1

[3] = target: T1, human CD22-ECD-His protein; experiment: ELISA, human CD22-ECD-His coated
Outline: as §1

[4] = target: T2, monkey CD22 protein (ACROBiosystems, SI2-R52Ha) (monkey (rhesus monkey in paragraph 148), UniProt H9G1X2 18-686); experiment: ELISA, monkey CD22-ECD-His coated
T2 construct: extracellular domain; also called monkey CD22-ECD; monkey CD22-ECD-His
T2 sequence: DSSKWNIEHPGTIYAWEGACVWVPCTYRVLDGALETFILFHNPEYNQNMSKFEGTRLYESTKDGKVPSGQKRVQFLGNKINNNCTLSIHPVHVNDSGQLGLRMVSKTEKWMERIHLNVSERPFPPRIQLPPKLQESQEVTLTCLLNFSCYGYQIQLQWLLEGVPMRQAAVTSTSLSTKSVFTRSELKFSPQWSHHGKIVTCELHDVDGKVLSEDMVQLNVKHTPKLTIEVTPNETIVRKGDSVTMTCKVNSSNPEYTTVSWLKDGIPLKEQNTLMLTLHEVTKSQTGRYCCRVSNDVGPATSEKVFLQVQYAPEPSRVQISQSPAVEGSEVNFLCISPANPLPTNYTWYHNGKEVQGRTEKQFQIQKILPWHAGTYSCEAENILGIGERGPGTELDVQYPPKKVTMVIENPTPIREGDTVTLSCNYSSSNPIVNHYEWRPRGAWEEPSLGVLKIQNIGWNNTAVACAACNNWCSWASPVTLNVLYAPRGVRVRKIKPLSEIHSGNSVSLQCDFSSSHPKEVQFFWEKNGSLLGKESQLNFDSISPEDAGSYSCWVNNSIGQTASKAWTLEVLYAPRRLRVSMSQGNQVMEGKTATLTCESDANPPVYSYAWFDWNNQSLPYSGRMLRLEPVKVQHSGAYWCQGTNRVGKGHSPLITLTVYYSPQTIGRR
Outline: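 Plates were coated overnight at 4° C with 2 μg/mL CD22 protein in PBS and blocked with PBS + 2% BSA. Chimeric antibodies were incubated for 2 h at 37° C, then HRP-labelled secondary for 2 h at 37° C. Bound antibody was read by TMB colour development (30 min, RT) stopped with 1.0 N HCl.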

[5] = target: T3, human CD22 domain1-4-His (human, UniProt P20273 20-425); experiment: ELISA, human CD22 domain1-4-His coated
T3 construct: also called hCD22 domain1-4-His; not shown: His tag
T3 sequence: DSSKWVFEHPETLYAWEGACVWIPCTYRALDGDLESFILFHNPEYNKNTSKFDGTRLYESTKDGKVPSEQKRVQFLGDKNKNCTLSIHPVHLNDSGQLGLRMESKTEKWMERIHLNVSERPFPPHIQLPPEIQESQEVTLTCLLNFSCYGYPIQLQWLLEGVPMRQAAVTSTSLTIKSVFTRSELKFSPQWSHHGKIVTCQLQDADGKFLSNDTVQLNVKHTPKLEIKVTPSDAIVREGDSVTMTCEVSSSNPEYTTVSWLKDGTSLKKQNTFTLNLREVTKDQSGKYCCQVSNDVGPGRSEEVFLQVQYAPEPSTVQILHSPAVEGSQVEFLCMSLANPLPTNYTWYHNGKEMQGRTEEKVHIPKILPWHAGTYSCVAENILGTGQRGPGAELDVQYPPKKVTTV

OD450 [1]: 1.84 OD450 | OD450 [2]: 1.94 OD450 | EC50 (read off the curve) [3]: ~0.06 nM | binding result [4]: no binding (tested: 100 nM) | EC50 (read off the curve) [5]: ~0.06 nM
B1: F2.343.16 (antibody, human IgG1, lambda, V domains shown)
VH: QVQLKQSGPGLVQPSQSLSITCTVSGFSLTGYGVQWVRQSPGKGLEWLGVIWGGGGTDYNAAFISRLNIIKDNSKSQVFFKMNSLQADDTAIYYCARYSKYGHFDVWGTGTAVTVSS
VL: QAVVTQESALTTSPGETVTLTCRSSTGAVTTSNYANWVQEKPDHLFTGLIGGTYNRVPGVPARFSGSLIGDKAALTITGAQTEDEAIYFCALWYSNHFWVFGGGTKLTVLG
notes: Human-murine chimeric IgG1, lambda

OD450 [1]: 2.16 OD450 | OD450 [2]: 2.08 OD450 | EC50 (read off the curve) [3]: ~0.06 nM | EC50 (read off the curve) [4]: ~0.1 nM | EC50 (read off the curve) [5]: ~0.1 nM
B2: F2.55.1 (antibody, human IgG1, lambda, V domains shown)
VH: QVTLKESGPGILQPSQTLSLTCSFSGFSLSTFPLGVGWIRQPSGKGLEWLAHVWWNDDDYYNPALKSRLTISKDTSNTRVFLSVASVDTAETATYYCARLNWDRWYFDVWGTGTTVTVSS
VL: QLVLTQSSSASFSLGASAKLTCTLSSQHSAYTVEWYQQQPLKPPKYVMELKKDGSHSTGDGIPDRFSGSSSGADRYLSISNIQPEDEAIYICGVGDTVKEQFVFGGGTKVTVLG
notes: as for B1

OD450 [1]: 2.55 OD450 | OD450 [2]: 2.82 OD450 | EC50 (read off the curve) [3]: ~0.05 nM | binding result [4]: no binding (tested: 100 nM) | binding result [5]: no binding (tested: 100 nM)
B3: F1.60.9 (antibody, human IgG1, kappa, V domains shown)
VH: QVQLKESGPGLVAPSQSLSITCTVSGLSLNNYGVSWVRQPPGKGLEWLGVIWGDGSTNYHSALISRLSISKDNSKSQVFLKLNSLHTDDTATYYCAINWGDYWGQGTTLIVSS
VL: DIKMTQSPSSMNASLGERVTITCKASQDINSYLSWFQQKPGKSPKILIYRANRLIDGVPSRFSGSGSGQDYSLTISSLEYEDMGIYYCLQYGVFPLTFGAGTKLELKR
notes: Human-murine chimeric IgG1, kappa

OD450 [1]: 2.54 OD450 | OD450 [2]: 2.7 OD450 | EC50 (read off the curve) [3]: ~0.01 nM | binding result [4]: no binding (tested: 100 nM) | EC50 (read off the curve) [5]: ~0.02 nM
B4: F1.245.2 (antibody, human IgG1, kappa, V domains shown)
VH: EVQLQQSGAELVKPGASVKLSCTGSGFNIKDYYIHWVKQRTEQGLEWMGRIDPEDGETEYAPKFQDEATITSDTSSNTAYLQLSSLTYEDTAVYYCAREAAGYFYRGSSYGYFDVWGTGTTVTVSS
VL: DFQMTQTTSFLSASLGDRVTISCSASQDISNYLNWYQQKPDGTVKLLIYYTSSLHSGVPSRFSGSGSGTDYSLTISNLEPEDIATYYCQQYSMLPYTFGGGTKLEMER
notes: as for B3

OD450 [1]: 2.03 OD450 | OD450 [2]: 2.24 OD450 | EC50 (read off the curve) [3]: ~0.03 nM | binding result [4]: no binding (tested: 100 nM) | EC50 (read off the curve) [5]: ~0.03 nM
B5: F2.70.2 (antibody, human IgG1, lambda, V domains shown)
VH: EVQLVESGGGLVKPGGSLKLSCAASGFTFSDYGMNWFRQAPEKGLEWVAYISRGSHTIYYADTVKGRFTISRDNAKNTLFLQMTSLRSNDTAMYYCVRMAGYYAMDYWGQGTSVTVSS
VL: QLVLTQSSSASFSLGASAKLTCTLSSQHSSYIIEWYQQQPLKPPKYVMELKKDGSHSTGDGIPDRFSGSSSGADRYLSISNIQPEDEAIYICGVGDTIKEQFVYVFGGGTKVTVLG
notes: as for B1

OD450 [1]: 2 OD450 | OD450 [2]: 2.44 OD450 | EC50 (read off the curve) [3]: ~0.03 nM | binding result [4]: no binding (tested: 100 nM) | EC50 (read off the curve) [5]: ~0.04 nM
B6: F2.104.10 (antibody, human IgG1, lambda, V domains shown)
VH: B5 VH with L11F, K76E, V114L
VL: B5 VL with L50V, P84S
notes: as for B1

OD450 [1]: 2.11 OD450 | OD450 [2]: 2.22 OD450 | EC50 (read off the curve) [3]: ~0.06 nM | EC50 (read off the curve) [4]: ~0.03 nM | EC50 (read off the curve) [5]: ~0.04 nM
B7: F2.205.9 (antibody, human IgG1, lambda, V domains shown)
VH: QVTLKESGPGILQPSQTLSLTCSFSGFSLSTSGMGVGWIRQPSGKGLEWLAHIWWDDDEYYNPALKSRLTISKDTSKNQVFLKIANVDTADTATYYCARISIPYGYYDWFFDVWGTGTTVTVSA
VL: QAVVTQESALTTSPGETVTLTCRSSTGAVTTRNYANWVQEKPDHLFTGLIGGTNNRAPGVPARFSGSLIGDKAALTITGAQTEDEAIYFCALWYSNHFIFGSGTKVTVLG
notes: as for B1
